Results taken from IntAct's records for PubMed 26356530.

B1: Histone deacetylase 3 (Homo sapiens), O15379 (parent)
chain: MAKTVAYFYDPDVGNFHYGAGHPMKPHRLALTHSLVLHYGLYKKMIVFKPYQASQHDMCRFHSEDYIDFLQRVSPTNMQGFTKSLNAFNVGDDCPVFPGLFEFCSRYTGASLQGATQLNNKICDIAINWAGGLHHAKKFEASGFCYVNDIVIGILELLKYHPRVLYIDIDIHHGDGVQEAFYLTDRVMTVSFHKYGNYFFPGTGDMYEVGAESGRYYCLNVPLRDGIDDQSYKHLFQPVINQVVDFYQPTCIVLQCGADSLGCDRLGCFNLSIRGHGECVEYVKSFNIPLLVLGGGGYTVRNVARCWTYETSLLVEEAISEELPYSEYFEYFAPDFTLHPDVSTRIENQNSRQYLDQIRQTIFENLKMLNHAPSVQIHDVPADLLTYDRTDEADAEERGPEENYSRPEAPNEFYDGDHDNDKESDVEI
partner: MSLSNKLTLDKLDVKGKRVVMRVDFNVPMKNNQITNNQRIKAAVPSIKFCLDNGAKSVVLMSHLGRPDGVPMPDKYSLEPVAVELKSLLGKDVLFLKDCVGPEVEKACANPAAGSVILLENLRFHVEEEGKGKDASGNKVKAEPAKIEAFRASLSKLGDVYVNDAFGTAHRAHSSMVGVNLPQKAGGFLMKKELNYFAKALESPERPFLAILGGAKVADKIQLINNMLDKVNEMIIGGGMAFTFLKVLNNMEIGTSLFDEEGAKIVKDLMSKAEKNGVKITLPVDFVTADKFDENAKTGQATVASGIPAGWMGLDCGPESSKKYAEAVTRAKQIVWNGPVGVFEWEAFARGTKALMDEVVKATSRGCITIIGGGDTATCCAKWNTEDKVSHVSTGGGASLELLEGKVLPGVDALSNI

Variants of: B1
Details: with pgk1_human PGK1, P00558

Row | Variant | effect of a mutation on the interaction
1 | S424A | decreasing interaction strength

Variants of: B1
Details: with PGK1, P00558-1

Row | Variant | effect of a mutation on the interaction
2 | S424A | decreasing interaction strength
